Reference: patent US20090318342A1, “Compounds” (IMPERIAL INNOVATIONS LIMITED, priority 2005, published 2009)

How the values were obtained:
[1] = molecular target: soluble form of TACE in which the transmembrane and C-terminal cytoplasmic domains are deleted (TACE R651) (human) (UniProt P78536); test: TACE inhibition kinetics, Ki(app), pH 9.0, fit with equation 3 (cooperative)
[2] = molecular target: ADAMTS-5 (Homo sapiens (Human)) (UniProt Q9UNA0); test: GST-IGD-FLAG substrate assay, Ki(app)
[3] = molecular target: T1, ADAMTS-4 (as used in Example 4; form not stated) (Homo sapiens (Human)) (UniProt O75173); test: GST-IGD-FLAG substrate assay, Ki(app)
T1 sequence: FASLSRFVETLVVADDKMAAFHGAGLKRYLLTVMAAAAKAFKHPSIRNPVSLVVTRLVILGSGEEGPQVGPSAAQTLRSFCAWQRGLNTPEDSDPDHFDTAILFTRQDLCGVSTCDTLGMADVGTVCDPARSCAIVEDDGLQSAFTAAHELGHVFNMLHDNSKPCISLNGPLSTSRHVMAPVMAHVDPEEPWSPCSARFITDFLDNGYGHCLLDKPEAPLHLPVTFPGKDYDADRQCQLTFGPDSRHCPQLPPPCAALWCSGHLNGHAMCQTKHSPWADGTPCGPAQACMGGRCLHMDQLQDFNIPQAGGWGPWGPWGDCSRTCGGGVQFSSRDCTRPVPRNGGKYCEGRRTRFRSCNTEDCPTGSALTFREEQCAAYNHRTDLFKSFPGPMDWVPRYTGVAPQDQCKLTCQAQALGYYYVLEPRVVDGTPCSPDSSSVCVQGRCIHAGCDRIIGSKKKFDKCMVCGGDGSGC

[4] = molecular target: T2, recombinant human ADAMTS-4 lacking the C-terminal spacer domain (human) (UniProt O75173); test: inhibition of aggrecan cleavage by 0.5 nM ADAMTS-4, anti-GELE Western blot, densitometry
T2 sequence: T1 sequence

[5] = molecular target: catalytic domain of membrane-type 1 MMP (MMP-14(CD)) (Homo sapiens (Human)) (UniProt P50281); test: enzyme inhibition kinetics, Ki(app), 5 nM MMP-14(CD)
[6] = molecular target: soluble form of TACE in which the transmembrane and C-terminal cytoplasmic domains are deleted (TACE R651) (human) (UniProt P78536); test: TACE inhibition kinetics at pH 7.5
[7] = molecular target: catalytic domain of stromelysin 1 (MMP-3(ΔC)) (Homo sapiens (Human)) (UniProt P08254); test: enzyme inhibition kinetics, Ki(app), as in Example 1
[8] = molecular target: gelatinase A (MMP-2) (Homo sapiens (Human)) (UniProt P08253); test: as above
[9] = molecular target: full-length collagenase 1 (MMP-1) (Homo sapiens (Human)) (UniProt P03956); test: as above
[10] = molecular target: catalytic domain of stromelysin 1 (MMP-3(ΔC)) (Homo sapiens (Human)) (UniProt P08254); test: enzyme inhibition kinetics, Ki(app), 1 nM MMP-3(ΔC)
[11] = molecular target: full-length collagenase 1 (MMP-1) (Homo sapiens (Human)) (UniProt P03956); test: enzyme inhibition kinetics, Ki(app), 5 nM MMP-1
[12] = molecular target: gelatinase A (MMP-2) (Homo sapiens (Human)) (UniProt P08253); test: enzyme inhibition kinetics, Ki(app), 1 nM MMP-2
[13] = molecular target: full-length collagenase 1 (MMP-1) (Homo sapiens (Human)) (UniProt P03956); test: MMP-1 inhibition under the conditions used for TACE activity measurements
Target sequence in this assay (P03956 100-469 limits assumed): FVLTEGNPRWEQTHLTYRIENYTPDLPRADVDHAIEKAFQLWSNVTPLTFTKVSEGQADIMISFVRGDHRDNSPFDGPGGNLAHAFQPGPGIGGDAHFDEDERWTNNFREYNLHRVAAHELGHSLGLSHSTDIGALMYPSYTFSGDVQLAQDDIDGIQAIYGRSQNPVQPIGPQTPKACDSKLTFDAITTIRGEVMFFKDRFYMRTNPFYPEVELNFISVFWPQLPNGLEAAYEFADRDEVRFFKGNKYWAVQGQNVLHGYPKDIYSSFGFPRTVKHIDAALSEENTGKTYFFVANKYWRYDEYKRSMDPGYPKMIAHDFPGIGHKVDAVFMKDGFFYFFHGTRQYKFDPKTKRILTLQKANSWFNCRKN

Chain of (-1A)N-TIMP-3 (chain): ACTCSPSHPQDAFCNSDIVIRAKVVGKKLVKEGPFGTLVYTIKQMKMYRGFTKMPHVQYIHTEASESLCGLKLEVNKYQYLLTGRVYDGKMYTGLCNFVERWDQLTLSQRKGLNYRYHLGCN

Question: For N-TIMP-3(T2G), which Ki [1] is on record?
Answer: Its Ki is 35.6 nM.

Question: What about the Ki [2] of the same substance?
Answer: Its Ki is 1.5 nM.

Question: What about the Ki [3] of the same substance?
Answer: Its Ki is 20 nM.

Question: And the Ki [4]?
Answer: Its Ki is 15 nM.

Question: And the Ki [5]?
Answer: The Ki was 2300 nM.

Question: What about the Ki [6] of the same substance?
Answer: The Ki was 46 nM.

Question: And the Ki [7]?
Answer: The Ki was greater than 1000 nM.

Question: What about the Ki [8] of the same substance?
Answer: Its Ki is greater than 1000 nM.

Question: What about the Ki [9] of the same substance?
Answer: Its Ki is greater than 500 nM.

Question: What about the Ki [10] of the same substance?
Answer: Its Ki is greater than 10000 nM.

Question: What about the Ki [11] of the same substance?
Answer: Its Ki is 547 nM.

Question: And the Ki [12]?
Answer: Its Ki is 4200 nM.

Question: What does the source list for (-1A)N-TIMP-3?
Answer: Ki [1]: 33.9 nM; Ki [2]: 1.9 nM; Ki [3]: 25 nM; Ki [4]: 18 nM; Ki [5]: 941 nM; Ki [7]: > 1000 nM; Ki [8]: > 1000 nM; Ki [9]: > 500 nM; Ki [13]: 412 nM; Ki [10]: 3300 nM; Ki [11]: 1300 nM; Ki [12]: 614 nM
